Tests used:
[1] = target: T1, Fpg (formamidopyrimidine-DNA glycosylase) (Escherichia coli, UniProt P05523 2-269); assay: MST; MST: 50 mM Tris-HCl pH 7.5, 50 mM KCl, 1 mM EDTA, 1 mM DTT, 7% glycerol, 25 C, 10 min, 0.5 uM DNA; authors call Kd values estimates only; conditions: protein: recombinant, tags: none (native form without tags)
T1 sequence: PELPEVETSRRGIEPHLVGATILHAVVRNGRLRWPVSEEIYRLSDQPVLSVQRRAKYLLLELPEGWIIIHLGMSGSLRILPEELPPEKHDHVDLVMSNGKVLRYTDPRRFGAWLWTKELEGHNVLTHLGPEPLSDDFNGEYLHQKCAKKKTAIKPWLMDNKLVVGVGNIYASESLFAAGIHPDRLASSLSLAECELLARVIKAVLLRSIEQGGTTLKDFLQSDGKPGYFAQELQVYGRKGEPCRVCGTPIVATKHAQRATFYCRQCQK

Nei (endonuclease VIII) = target: T2, Nei (endonuclease VIII) (Escherichia coli, UniProt P50465 2-263); assay: as above; conditions: protein: recombinant, tags: none (native form without tags)
T2 sequence: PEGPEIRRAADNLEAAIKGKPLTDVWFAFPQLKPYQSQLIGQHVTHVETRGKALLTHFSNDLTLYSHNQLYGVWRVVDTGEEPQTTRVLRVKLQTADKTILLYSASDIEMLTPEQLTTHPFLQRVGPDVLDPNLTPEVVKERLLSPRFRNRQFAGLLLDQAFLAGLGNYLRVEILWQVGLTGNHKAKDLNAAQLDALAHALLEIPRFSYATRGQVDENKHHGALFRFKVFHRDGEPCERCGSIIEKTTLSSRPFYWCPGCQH

[2] = target: NEIL1 (endonuclease VIII-like 1) (Homo sapiens, UniProt Q96FI4 2-390); assay: as above; conditions: protein: recombinant
Sequence of NEIL1 (endonuclease VIII-like 1) (Q96FI4 2-390): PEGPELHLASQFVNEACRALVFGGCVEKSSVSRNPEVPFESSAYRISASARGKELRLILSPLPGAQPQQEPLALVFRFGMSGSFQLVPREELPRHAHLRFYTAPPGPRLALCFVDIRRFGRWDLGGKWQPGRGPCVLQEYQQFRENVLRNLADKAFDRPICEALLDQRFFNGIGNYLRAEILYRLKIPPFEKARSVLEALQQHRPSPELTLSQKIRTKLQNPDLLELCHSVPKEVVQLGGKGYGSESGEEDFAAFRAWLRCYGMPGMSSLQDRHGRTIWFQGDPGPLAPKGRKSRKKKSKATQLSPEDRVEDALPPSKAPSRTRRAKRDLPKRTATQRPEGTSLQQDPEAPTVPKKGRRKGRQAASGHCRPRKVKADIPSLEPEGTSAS

NTH1 (endonuclease III) = target: T3, NTH1 (endonuclease III) (Homo sapiens, UniProt P78549 1-304); assay: as above; conditions: protein: recombinant
T3 sequence: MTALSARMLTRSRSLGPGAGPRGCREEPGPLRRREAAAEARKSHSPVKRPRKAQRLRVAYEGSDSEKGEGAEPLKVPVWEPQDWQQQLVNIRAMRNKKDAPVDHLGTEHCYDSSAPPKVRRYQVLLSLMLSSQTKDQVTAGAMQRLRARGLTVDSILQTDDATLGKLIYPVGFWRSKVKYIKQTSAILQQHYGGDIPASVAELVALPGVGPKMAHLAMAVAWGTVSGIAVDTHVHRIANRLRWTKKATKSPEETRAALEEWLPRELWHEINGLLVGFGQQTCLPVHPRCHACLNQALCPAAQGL

[3] = target: T4, OGG1 (8-oxoguanine-DNA glycosylase) (Homo sapiens, UniProt O15527 1-345); assay: as above; conditions: protein: recombinant
T4 sequence (O15527 whole entry): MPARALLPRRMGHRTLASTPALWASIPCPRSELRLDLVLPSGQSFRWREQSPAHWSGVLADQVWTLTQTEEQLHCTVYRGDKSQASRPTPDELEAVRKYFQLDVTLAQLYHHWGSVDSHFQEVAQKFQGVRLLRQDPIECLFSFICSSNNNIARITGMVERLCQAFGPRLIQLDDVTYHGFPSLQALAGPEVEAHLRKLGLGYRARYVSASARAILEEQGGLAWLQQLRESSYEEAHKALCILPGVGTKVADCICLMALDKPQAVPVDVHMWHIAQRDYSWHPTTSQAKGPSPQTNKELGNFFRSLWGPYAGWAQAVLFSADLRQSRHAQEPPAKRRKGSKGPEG

[4] = target: T1, Fpg (formamidopyrimidine-DNA …); assay: stopped-flow FRET; DNA bending phase before cleavage; MST: 50 mM Tris-HCl pH 7.5, 50 mM KCl, 1 mM EDTA, 1 mM DTT, 7% glycerol, 25 C, 10 min, 0.5 uM DNA; authors call Kd values estimates only; conditions: protein: recombinant; tags: none (native form without tags); label: 5'-FAM on strand 1; blunt
[5] = target: T4, OGG1 (8-oxoguanine-DNA glycosylase); assay: as above; conditions: protein: recombinant; label: 5'-FAM on strand 1; blunt
[6] = label: 5'-FAM on strand 2, blunt
[7] = label: 5'-FAM, 3'-BHQ1, G-quadruplex

B1: C/G (dsDNA)
DNA 1: GCTCACGTACAGAGCTG
DNA 2: CAGCTCTGTACGTGAGC
Kd [1, 6]: 1600 ± 1100 nM
Kd (Nei (endonuclease VIII); [6]): 3100 ± 700 nM
Kd [2, 6]: 17000 ± 15000 nM
Kd (NTH1 (endonuclease III); [6]): 700 ± 400 nM
Kd [3, 6]: 1400 ± 500 nM

TTAGGGTTAGGGTTAGGGTTAGGGTT (structured_DNA) [Q4]
Kd ([1]; G-quadruplex): 1000 ± 300 nM
Kd (Nei (endonuclease VIII); G-quadruplex): 900 ± 200 nM
Kd ([2]; G-quadruplex): 3400 ± 500 nM
Kd (NTH1 (endonuclease III); G-quadruplex): 2500 ± 800 nM
Kd ([3]; G-quadruplex): 700 ± 200 nM

TTAGGGTTAGGGTTAGGGTTAGGGTT (structured_DNA, T14 = thymine glycol) [Q4-Tg]
Kd (Nei (endonuclease VIII); [7]): 800 ± 200 nM
Kd [2, 7]: 9100 ± 3000 nM
Kd (NTH1 (endonuclease III); [7]): 1300 ± 300 nM

B2: Type I oxoG/C (dsDNA)
DNA 1: GCTCAGGTACAGAGCTG
DNA 2: CAGCTCTGTACCTGAGC
modifications: G6 of strand 1 = 8-oxoguanine, opposite C
binding result [4]: binds
binding result [5]: binds

TTAGGGTTAGGGTTAGGGTTAGGGTT (structured_DNA, G17 = 8-oxoguanine) [Q4-oxoG]
Kd [1, 7]: 1200 ± 400 nM
Kd [3, 7]: 1200 ± 300 nM

Reference: PMC7734321, “Lesion Recognition and Cleavage of Damage-Containing Quadruplexes and Bulged Structures by DNA Glycosylases”
